The record followed here is article PMC4668074, “NDK Interacts with FtsZ and Converts GDP to GTP to Trigger FtsZ Polymerisation - A Novel Role for NDK” (PLoS ONE, 2015).

For test [1], the target named is T1, 6xHis-EcFtsZ (FtsZ of E. coli) (E. coli, UniProt P0A9A6 1-383).
T1 sequence (looked up): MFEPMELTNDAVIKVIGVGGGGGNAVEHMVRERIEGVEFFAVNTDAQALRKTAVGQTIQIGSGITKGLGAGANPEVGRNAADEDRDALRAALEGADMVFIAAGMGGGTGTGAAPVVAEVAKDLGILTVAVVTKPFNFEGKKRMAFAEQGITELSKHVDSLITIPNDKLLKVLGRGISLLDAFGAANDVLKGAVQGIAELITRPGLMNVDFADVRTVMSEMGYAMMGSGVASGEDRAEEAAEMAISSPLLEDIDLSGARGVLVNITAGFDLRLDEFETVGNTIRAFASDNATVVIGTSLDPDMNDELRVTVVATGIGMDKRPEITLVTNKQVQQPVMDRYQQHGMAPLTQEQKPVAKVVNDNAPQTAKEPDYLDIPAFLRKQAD
Put plainly: pull-down. To be noted: both partners purified.

Test [2] deals with T2, 6xHis-MtFtsZ (Mycobacterium tuberculosis FtsZ) (Mycobacterium tuberculosis, UniProt P9WN95 1-379).
T2 construct: also called MtZ
T2 sequence: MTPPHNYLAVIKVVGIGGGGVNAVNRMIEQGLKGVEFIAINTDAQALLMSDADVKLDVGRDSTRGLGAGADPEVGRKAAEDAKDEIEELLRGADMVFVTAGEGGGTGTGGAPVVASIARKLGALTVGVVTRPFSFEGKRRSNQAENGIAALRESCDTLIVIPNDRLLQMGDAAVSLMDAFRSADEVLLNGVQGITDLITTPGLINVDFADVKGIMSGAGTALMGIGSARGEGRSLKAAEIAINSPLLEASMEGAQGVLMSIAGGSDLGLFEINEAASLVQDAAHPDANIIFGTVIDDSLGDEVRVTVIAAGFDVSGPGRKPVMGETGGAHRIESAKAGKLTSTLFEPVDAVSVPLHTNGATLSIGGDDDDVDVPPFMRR
Put plainly: pull-down. To be noted: both partners purified.

B1: GST-MtNDK (Mycobacterium tuberculosis nucleoside diphosphate kinase) (enzyme)
chain: MTERTLVLIKPDGIERQLIGEIISRIERKGLTIAALQLRTVSAELASQHYAEHEGKPFFGSLLEFITSGPVVAAIVEGTRAIAAVRQLAGGTDPVQAAAPGTIRGDFALETQFNLVHGSDSAESAQREIALWFPGA
notes: also called GST-NDK; MtNDK-Wt
With B1, the binding result in test [1] and in test [2] was “binds” each time.
